Laboratory results taken from article PMC4458174 (DNA repair, 2015).

T1: mouse Myh (mMyh), His-tagged (mouse, UniProt Q99P21 1-515)
T1 sequence (looked up): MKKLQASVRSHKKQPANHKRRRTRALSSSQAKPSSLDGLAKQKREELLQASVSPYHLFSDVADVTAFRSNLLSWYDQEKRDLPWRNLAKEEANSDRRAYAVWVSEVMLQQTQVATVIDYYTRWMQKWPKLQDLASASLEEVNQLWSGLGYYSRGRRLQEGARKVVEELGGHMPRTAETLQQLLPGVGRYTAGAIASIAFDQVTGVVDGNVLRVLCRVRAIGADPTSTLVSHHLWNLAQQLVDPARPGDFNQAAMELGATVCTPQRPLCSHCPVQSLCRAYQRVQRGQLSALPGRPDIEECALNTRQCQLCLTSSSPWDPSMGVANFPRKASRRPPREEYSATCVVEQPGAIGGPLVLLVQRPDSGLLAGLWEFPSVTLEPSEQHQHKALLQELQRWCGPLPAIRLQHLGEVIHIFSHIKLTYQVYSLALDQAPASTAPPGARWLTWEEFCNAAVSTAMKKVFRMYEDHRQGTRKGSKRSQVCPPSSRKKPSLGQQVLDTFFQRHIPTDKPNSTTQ


Target: T1, mouse Myh (mMyh), His-tagged
Experiment: pull-down

binding result	Binder
binds	GST-hHus1N (residues 1-146) (domain or fragment, human, UniProt O60921 1-146, looked up) MKFRAKIVDGACLNHFTRISNMIAKLAKTCTLRISPDKLNFILCDKLANGGVSMWCELEQENFFNEFQMEGVSAENNEIYLELTSENLSRALKTAQNARALKIKLTNKHFPCLTVSVELLSMSSSSRIVTHDIPIKVIPRKLWKDL
binds	GST-hHus1C (residues 147-280) (domain or fragment, human, UniProt O60921 147-280, looked up) QEPVVPDPDVSIYLPVLKTMKSVVEKMKNISNHLVIEANLDGELNLKIETELVCVTTHFKDLGNPPLASESTHEDRNVEHMAEVHIDIRKLLQFLAGQQVNPTKALCNIVNNKMVHFDLLHEDVSLQYFIPALS
binds	GST-hHus1N(-) (residues 1-133) (domain or fragment, human, UniProt O60921 1-133, looked up) MKFRAKIVDGACLNHFTRISNMIAKLAKTCTLRISPDKLNFILCDKLANGGVSMWCELEQENFFNEFQMEGVSAENNEIYLELTSENLSRALKTAQNARALKIKLTNKHFPCLTVSVELLSMSSSSRIVTHDI
binds	GST-tagged hHus1 (wild type) (natural protein, human, UniProt O60921 1-280, looked up) MKFRAKIVDGACLNHFTRISNMIAKLAKTCTLRISPDKLNFILCDKLANGGVSMWCELEQENFFNEFQMEGVSAENNEIYLELTSENLSRALKTAQNARALKIKLTNKHFPCLTVSVELLSMSSSSRIVTHDIPIKVIPRKLWKDLQEPVVPDPDVSIYLPVLKTMKSVVEKMKNISNHLVIEANLDGELNLKIETELVCVTTHFKDLGNPPLASESTHEDRNVEHMAEVHIDIRKLLQFLAGQQVNPTKALCNIVNNKMVHFDLLHEDVSLQYFIPALS
binds	GST-hHus1 V137A (natural protein, human, UniProt O60921 1-280, looked up) MKFRAKIVDGACLNHFTRISNMIAKLAKTCTLRISPDKLNFILCDKLANGGVSMWCELEQENFFNEFQMEGVSAENNEIYLELTSENLSRALKTAQNARALKIKLTNKHFPCLTVSVELLSMSSSSRIVTHDIPIKAIPRKLWKDLQEPVVPDPDVSIYLPVLKTMKSVVEKMKNISNHLVIEANLDGELNLKIETELVCVTTHFKDLGNPPLASESTHEDRNVEHMAEVHIDIRKLLQFLAGQQVNPTKALCNIVNNKMVHFDLLHEDVSLQYFIPALS
binds	GST-hHus1 K136A (natural protein, human, UniProt O60921 1-280, looked up) MKFRAKIVDGACLNHFTRISNMIAKLAKTCTLRISPDKLNFILCDKLANGGVSMWCELEQENFFNEFQMEGVSAENNEIYLELTSENLSRALKTAQNARALKIKLTNKHFPCLTVSVELLSMSSSSRIVTHDIPIAVIPRKLWKDLQEPVVPDPDVSIYLPVLKTMKSVVEKMKNISNHLVIEANLDGELNLKIETELVCVTTHFKDLGNPPLASESTHEDRNVEHMAEVHIDIRKLLQFLAGQQVNPTKALCNIVNNKMVHFDLLHEDVSLQYFIPALS
binds	GST-hHus1N(+) (residues 1-155) (domain or fragment, human, UniProt O60921 1-155, looked up) MKFRAKIVDGACLNHFTRISNMIAKLAKTCTLRISPDKLNFILCDKLANGGVSMWCELEQENFFNEFQMEGVSAENNEIYLELTSENLSRALKTAQNARALKIKLTNKHFPCLTVSVELLSMSSSSRIVTHDIPIKVIPRKLWKDLQEPVVPDPD
